The values that follow come from US20100135987A1.

Where “and” joins values, the source holds several entries; their conditions need not be identical. Equal values may be shown once.

In assay [1] the target is Protein A (ligand of MabSelect resin, GE Healthcare) (UniProt P38507). The assay is described as follows: dynamic binding capacity of MabSelect column at 5% breakthrough, 300 cm/hr to 35 mg Ab/mL resin, then 150 cm/hr.
The target is the same in assay [2]. The assay is described as follows: dynamic binding capacity of MabSelect column at 5% breakthrough, load at 300 cm/hr, average of Exp. 1 and 2.
Assay [3] has the same target. In words: dynamic binding capacity of MabSelect column at 5% breakthrough, dual-flow rate load, average of Exp. 3 and 4.
Assay [4] shares this target. In words: dynamic binding capacity of MabSelect column at 5% breakthrough, load at 300 cm/hr.

Regarding anti-IL-12 antibody (ABT-874), the DBC at 5% BT (mg Ab/mL resin) in assay [1] is 51.6 and 51.7; in assay [2], 44.3; in assay [3], 51.7; in assay [4], 43.7 and 44.9.
